According to patent US20150374794A1 (Novo Nordisk, published 2015):
Numbered stars: 1 amine (or outer) side, 2 acyl side, 3 side chain; on linkers, the order of the positions; unused ones are H or OH. Square brackets hold non-standard residues; d marks the D form. Side chains are listed from the residue outwards. Ends that are not written are not given here. * marks the point of attachment. C18 diacid = O=C(O)CCCCCCCCCCCCCCCCC(=O)*; γGlu = O=C(O)[C@H](CCC(=O)[*:2])N[*:1]; Ac4c = NC1(C(=O)O)CCC1; AEEA = NCCOCCOCC(=O)O; Aib = CC(C)(N)C(=O)O

B1: N^ε28-[2-[2-[2-[[2-[2-[2-[[(4S)-4-carboxy-4-[[(4S)-4-carboxy-4-[[(4S)-4-carboxy-4-(17-carboxyheptadecanoylamino)butanoyl]amino]butanoyl]amino]butanoyl]amino]eth … (peptide)
peptide: H[Aib]QGTFTSDVSKYLDARRAQDFVQWLLK([AEEA-AEEA-γGlu-γGlu-γGlu-C18 diacid])T-NH2
modifications: N-terminus assumed
SMILES: CC(C)C[C@H](NC(=O)[C@H](Cc1ccc(O)cc1)NC(=O)[C@H](CCCCN)NC(=O)[C@H](CO)NC(=O)[C@@H](NC(=O)[C@H](CC(=O)O)NC(=O)[C@H](CO)NC(=O)[C@@H](NC(=O)[C@H](Cc1ccccc1)NC(=O)[C@@H](NC(=O)CNC(=O)[C@H](CCC(N)=O)NC(=O)C(C)(C)NC(=O)[C@@H](N)Cc1c[nH]cn1)[C@@H](C)O)[C@@H](C)O)C(C)C)C(=O)N[C@@H](CC(=O)O)C(=O)N[C@@H](C)C(=O)N[C@@H](CCCNC(=N)N)C(=O)N[C@@H](CCCNC(=N)N)C(=O)N[C@@H](C)C(=O)N[C@@H](CCC(N)=O)C(=O)N[C@@H](CC(=O)O)C(=O)N[C@@H](Cc1ccccc1)C(=O)N[C@H](C(=O)N[C@@H](CCC(N)=O)C(=O)N[C@@H](Cc1c[nH]c2ccccc12)C(=O)N[C@@H](CC(C)C)C(=O)N[C@@H](CC(C)C)C(=O)N[C@@H](CCCCNC(=O)COCCOCCNC(=O)COCCOCCNC(=O)CC[C@H](NC(=O)CC[C@H](NC(=O)CC[C@H](NC(=O)CCCCCCCCCCCCCCCCC(=O)O)C(=O)O)C(=O)O)C(=O)O)C(=O)N[C@H](C(N)=O)[C@@H](C)O)C(C)C
B2: N^ε28-[2-[2-[2-[[2-[2-[2-[[(4S)-4-carboxy-4-[[(4S)-4-carboxy-4-[[(4S)-4-carboxy-4-(17-carboxyheptadecanoylamino)butanoyl]amino]butanoyl]amino]butanoyl]amino]eth … (peptide)
peptide: H[Aib]QGTFTSDVSRYLDLRRAQDFVQWLLK([AEEA-AEEA-γGlu-γGlu-γGlu-C18 diacid])T-NH2
modifications: N-terminus assumed
SMILES: CC(C)C[C@H](NC(=O)[C@H](CC(=O)O)NC(=O)[C@H](CC(C)C)NC(=O)[C@H](Cc1ccc(O)cc1)NC(=O)[C@H](CCCNC(=N)N)NC(=O)[C@H](CO)NC(=O)[C@@H](NC(=O)[C@H](CC(=O)O)NC(=O)[C@H](CO)NC(=O)[C@@H](NC(=O)[C@H](Cc1ccccc1)NC(=O)[C@@H](NC(=O)CNC(=O)[C@H](CCC(N)=O)NC(=O)C(C)(C)NC(=O)[C@@H](N)Cc1c[nH]cn1)[C@@H](C)O)[C@@H](C)O)C(C)C)C(=O)N[C@@H](CCCNC(=N)N)C(=O)N[C@@H](CCCNC(=N)N)C(=O)N[C@@H](C)C(=O)N[C@@H](CCC(N)=O)C(=O)N[C@@H](CC(=O)O)C(=O)N[C@@H](Cc1ccccc1)C(=O)N[C@H](C(=O)N[C@@H](CCC(N)=O)C(=O)N[C@@H](Cc1c[nH]c2ccccc12)C(=O)N[C@@H](CC(C)C)C(=O)N[C@@H](CC(C)C)C(=O)N[C@@H](CCCCNC(=O)COCCOCCNC(=O)COCCOCCNC(=O)CC[C@H](NC(=O)CC[C@H](NC(=O)CC[C@H](NC(=O)CCCCCCCCCCCCCCCCC(=O)O)C(=O)O)C(=O)O)C(=O)O)C(=O)N[C@H](C(N)=O)[C@@H](C)O)C(C)C
B3: N^ε28-[2-[[(2S)-2-[[(2S)-4-carboxy-2-[[2-[[(2S)-2-[[(4S)-4-carboxy-4-[[(4S)-4-carboxy-4-(17-carboxyheptadecanoylamino)butanoyl]amino]butanoyl]amino]-3-hydroxypr … (peptide)
peptide: H[Ac4c]HGTFTSDLSKYLESRRAQDFVQWLLK([Gly-Ser-Glu-Gly-Ser-γGlu-γGlu-C18 diacid])T-NH2
B4: N^ε28-[2-[2-[2-[[2-[2-[2-[[(4S)-4-carboxy-4-[[(4S)-4-carboxy-4-[[(4S)-4-carboxy-4-(17-carboxyheptadecanoylamino)butanoyl]amino]butanoyl]amino]butanoyl]amino]eth … (peptide)
peptide: H[Aib]QGTFTSDVSKYLDLRRAQDFVQWLLK([AEEA-AEEA-γGlu-γGlu-γGlu-C18 diacid])T-NH2
modifications: N-terminus assumed
SMILES: CC(C)C[C@H](NC(=O)[C@H](CC(=O)O)NC(=O)[C@H](CC(C)C)NC(=O)[C@H](Cc1ccc(O)cc1)NC(=O)[C@H](CCCCN)NC(=O)[C@H](CO)NC(=O)[C@@H](NC(=O)[C@H](CC(=O)O)NC(=O)[C@H](CO)NC(=O)[C@@H](NC(=O)[C@H](Cc1ccccc1)NC(=O)[C@@H](NC(=O)CNC(=O)[C@H](CCC(N)=O)NC(=O)C(C)(C)NC(=O)[C@@H](N)Cc1c[nH]cn1)[C@@H](C)O)[C@@H](C)O)C(C)C)C(=O)N[C@@H](CCCNC(=N)N)C(=O)N[C@@H](CCCNC(=N)N)C(=O)N[C@@H](C)C(=O)N[C@@H](CCC(N)=O)C(=O)N[C@@H](CC(=O)O)C(=O)N[C@@H](Cc1ccccc1)C(=O)N[C@H](C(=O)N[C@@H](CCC(N)=O)C(=O)N[C@@H](Cc1c[nH]c2ccccc12)C(=O)N[C@@H](CC(C)C)C(=O)N[C@@H](CC(C)C)C(=O)N[C@@H](CCCCNC(=O)COCCOCCNC(=O)COCCOCCNC(=O)CC[C@H](NC(=O)CC[C@H](NC(=O)CC[C@H](NC(=O)CCCCCCCCCCCCCCCCC(=O)O)C(=O)O)C(=O)O)C(=O)O)C(=O)N[C@H](C(N)=O)[C@@H](C)O)C(C)C
B5: N^ε28-[2-[[(2S)-2-[[(2S)-4-carboxy-2-[[(2S)-2-[[(4S)-4-carboxy-4-[[(4S)-4-carboxy-4-(17-carboxyheptadecanoylamino)butanoyl]amino]butanoyl]amino]-3-hydroxypropan … (peptide)
peptide: H[Aib]QGTFTSDLSKYLDLRRARDFVQWLLK([Gly-Ser-Glu-Ser-γGlu-γGlu-C18 diacid])T-NH2
B6: N^ε28-[2-[[(2S)-2-[[(2S)-4-carboxy-2-[[2-[[(2S)-2-[[(4S)-4-carboxy-4-[[(4S)-4-carboxy-4-(17-carboxyheptadecanoylamino)butanoyl]amino]butanoyl]amino]-3-hydroxypr … (peptide)
peptide: H[Ac4c]QGTFTSDLSKYLEERRARDFVQWLLK([Gly-Ser-Glu-Gly-Ser-γGlu-γGlu-C18 diacid])T-NH2
B7: N^ε28-[(4S)-4-carboxy-4-[[(4S)-4-carboxy-4-[[2-[2-[2-[[2-[2-[2-[[(4S)-4-carboxy-4-(17-carboxyheptadecanoylamino)butanoyl]amino]ethoxy]ethoxy]-acetyl]amino]ethox … (peptide)
peptide: H[Aib]QGTFTSDLSKYLDLKRAREFVQWLLK([γGlu-γGlu-AEEA-AEEA-γGlu-C18 diacid])T-NH2
B8: N^ε28-[2-[[(2S)-2-[[(2S)-4-carboxy-2-[[2-[[(2S)-2-[[(4S)-4-carboxy-4-[[(4S)-4-carboxy-4-(17-carboxyheptadecanoylamino)butanoyl]amino]butanoyl]amino]-3-hydroxypr … (peptide)
peptide: H[Ac4c]QGTFTSDLSKYLDLKRAREFVQWLLK([Gly-Ser-Glu-Gly-Ser-γGlu-γGlu-C18 diacid])T-NH2
B9: N^ε28-[2-[2-[2-[[2-[2-[2-[[(4S)-4-carboxy-4-[[(4S)-4-carboxy-4-[[(4S)-4-carboxy-4-(17-carboxyheptadecanoylamino)butanoyl]amino]butanoyl]amino]butanoyl]amino]eth … (peptide)
peptide: H[Aib]QGTFTSDVSRYLDARRAQDFVQWLLK([AEEA-AEEA-γGlu-γGlu-γGlu-C18 diacid])T-NH2
modifications: N-terminus assumed
SMILES: CC(C)C[C@H](NC(=O)[C@H](Cc1ccc(O)cc1)NC(=O)[C@H](CCCNC(=N)N)NC(=O)[C@H](CO)NC(=O)[C@@H](NC(=O)[C@H](CC(=O)O)NC(=O)[C@H](CO)NC(=O)[C@@H](NC(=O)[C@H](Cc1ccccc1)NC(=O)[C@@H](NC(=O)CNC(=O)[C@H](CCC(N)=O)NC(=O)C(C)(C)NC(=O)[C@@H](N)Cc1c[nH]cn1)[C@@H](C)O)[C@@H](C)O)C(C)C)C(=O)N[C@@H](CC(=O)O)C(=O)N[C@@H](C)C(=O)N[C@@H](CCCNC(=N)N)C(=O)N[C@@H](CCCNC(=N)N)C(=O)N[C@@H](C)C(=O)N[C@@H](CCC(N)=O)C(=O)N[C@@H](CC(=O)O)C(=O)N[C@@H](Cc1ccccc1)C(=O)N[C@H](C(=O)N[C@@H](CCC(N)=O)C(=O)N[C@@H](Cc1c[nH]c2ccccc12)C(=O)N[C@@H](CC(C)C)C(=O)N[C@@H](CC(C)C)C(=O)N[C@@H](CCCCNC(=O)COCCOCCNC(=O)COCCOCCNC(=O)CC[C@H](NC(=O)CC[C@H](NC(=O)CC[C@H](NC(=O)CCCCCCCCCCCCCCCCC(=O)O)C(=O)O)C(=O)O)C(=O)O)C(=O)N[C@H](C(N)=O)[C@@H](C)O)C(C)C
B10: N^ε28-[(4S)-4-carboxy-4-[[2-[2-[2-[[2-[2-[2-[[(4S)-4-carboxy-4-[[(4S)-4-carboxy-4-(17-carboxyheptadecanoylamino)butanoyl]amino]butanoyl]amino]ethoxy]ethoxy]acet … (peptide)
peptide: H[Aib]HGTFTSDLSKYLESRRAREFVAWLLK([γGlu-AEEA-AEEA-γGlu-γGlu-C18 diacid])T-NH2
modifications: N-terminus assumed
SMILES: CC(C)C[C@H](NC(=O)[C@H](Cc1c[nH]c2ccccc12)NC(=O)[C@H](C)NC(=O)[C@@H](NC(=O)[C@H](Cc1ccccc1)NC(=O)[C@H](CCC(=O)O)NC(=O)[C@H](CCCNC(=N)N)NC(=O)[C@H](C)NC(=O)[C@H](CCCNC(=N)N)NC(=O)[C@H](CCCNC(=N)N)NC(=O)[C@H](CO)NC(=O)[C@H](CCC(=O)O)NC(=O)[C@H](CC(C)C)NC(=O)[C@H](Cc1ccc(O)cc1)NC(=O)[C@H](CCCCN)NC(=O)[C@H](CO)NC(=O)[C@H](CC(C)C)NC(=O)[C@H](CC(=O)O)NC(=O)[C@H](CO)NC(=O)[C@@H](NC(=O)[C@H](Cc1ccccc1)NC(=O)[C@@H](NC(=O)CNC(=O)[C@H](Cc1c[nH]cn1)NC(=O)C(C)(C)NC(=O)[C@@H](N)Cc1c[nH]cn1)[C@@H](C)O)[C@@H](C)O)C(C)C)C(=O)N[C@@H](CC(C)C)C(=O)N[C@@H](CCCCNC(=O)CC[C@H](NC(=O)COCCOCCNC(=O)COCCOCCNC(=O)CC[C@H](NC(=O)CC[C@H](NC(=O)CCCCCCCCCCCCCCCCC(=O)O)C(=O)O)C(=O)O)C(=O)O)C(=O)N[C@H](C(N)=O)[C@@H](C)O
B11: N^ε28-[2-[[(2S)-2-[[(2S)-4-carboxy-2-[[2-[[(2S)-2-[[(4S)-4-carboxy-4-[[(4S)-4-carboxy-4-(17-carboxyheptadecanoylamino)butanoyl]amino]butanoyl]amino]-3-hydroxypr … (peptide)
peptide: H[Aib]HGTFTSDLSKYLESRRARDFVQWLLK([Gly-Ser-Glu-Gly-Ser-γGlu-γGlu-C18 diacid])T-NH2

Key:
human GLP-1 receptor [1] = target: T1, human GLP-1 receptor (human, UniProt P43220 24-463); assay: displacement of 125I-GLP-1(7-36)NH2, membranes with human GLP-1R, SPA
T1 construct: whole, on cells; the potency assay used whole cells (clone FCW467-12A/KZ10-1)
Experimental: (§1) The receptor binding of each compound to the human GLP-1 receptor was measured in a displacement binding assay. […] Each derivative was added in a series of concentrations to isolated membranes containing the human GLP-1 receptor and displacement of the labelled ligand was monitored. The receptor binding was reported as the concentration at which half of the labelled ligand was displaced from the receptor, the IC₅₀ value.

human glucagon receptor [2] = target: T2, human glucagon receptor (human, UniProt P47871 26-477); assay: displacement of 125I-glucagon, membranes with human glucagon receptor, SPA
T2 construct: whole, on cells; the potency assay used whole cells (clone pLJ6'-4-25); also called GlucR; hGCGR
T2 sequence (P47871 26-477): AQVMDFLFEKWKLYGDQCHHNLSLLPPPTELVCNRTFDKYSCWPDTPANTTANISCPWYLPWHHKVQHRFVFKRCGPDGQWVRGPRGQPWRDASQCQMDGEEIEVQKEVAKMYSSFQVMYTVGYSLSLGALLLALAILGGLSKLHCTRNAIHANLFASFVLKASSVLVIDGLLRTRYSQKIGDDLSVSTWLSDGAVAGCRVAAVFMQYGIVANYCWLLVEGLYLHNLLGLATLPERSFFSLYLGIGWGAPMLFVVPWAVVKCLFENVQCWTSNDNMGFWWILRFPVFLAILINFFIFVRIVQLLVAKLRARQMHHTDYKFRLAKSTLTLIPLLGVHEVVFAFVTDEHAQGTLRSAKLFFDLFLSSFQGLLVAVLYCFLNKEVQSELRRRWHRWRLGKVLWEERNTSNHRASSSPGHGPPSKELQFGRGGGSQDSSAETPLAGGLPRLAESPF
Experimental: as §1, with “human glucagon” for “human GLP-1”, “ligand is” for “ligand was”

human GLP-1 receptor [3] = target: T1, human GLP-1 receptor; assay: cell-based or functional assay
human glucagon receptor [4] = target: T2, human glucagon receptor; assay: cell-based or functional assay

Row | Binder | IC50 (human GLP-1 receptor [1]) [nM] | IC50 (human glucagon receptor [2]) [nM] | EC50 GLP-1R, CRE luciferase reporter gene assay in BHK cells (human GLP-1 receptor [3]) [nM] | EC50 GlucR, CRE luciferase reporter gene assay in BHK cells (human glucagon receptor [4]) [nM]
1 | B1 | 0.2 | 3.2 | 0.0015 | 0.03
2 | B2 | 1.5 | 16.2 | 0.005 | 0.049
3 | B3 | 2.6 | 0.7 | 0.003 | 0.001
4 | B4 | 0.7 | 5.7 | 0.004 | 0.017
5 | B5 | 1.1 | 18.4 | 0.027 | 0.0305
6 | B6 | 0.2 | 3.9 | 0.0058 | 0.113
7 | B7 | 0.5 | 4 | 0.009 | 0.0087
8 | B8 | 0.2 | 3.1 | 0.044 | 0.008
9 | B9 | 0.5 | 11.3 | 0.003 | 0.057
10 | B10 | 1.5 | 0.8 | 0.0195 | 0.0029
11 | B11 | 0.2 | 0.1 | 0.004 | 0.002
